These results are taken from PMC10965912, “FliH and FliI help FlhA bring strict order to flagellar protein export in Salmonella” (Communications Biology, 2024).

For series [1], the target named is T1, FlgK (Salmonella enterica serovar Typhimurium, UniProt P0A1J5 1-553).
T1 construct: FlgK, filament-type export substrate, Salmonella enterica serovar Typhimurium (plasmid pMKGK2, pTrc99A); source: E. coli BL21 Star (DE3), purified (Q-Sepharose anion exchange)
T1 sequence: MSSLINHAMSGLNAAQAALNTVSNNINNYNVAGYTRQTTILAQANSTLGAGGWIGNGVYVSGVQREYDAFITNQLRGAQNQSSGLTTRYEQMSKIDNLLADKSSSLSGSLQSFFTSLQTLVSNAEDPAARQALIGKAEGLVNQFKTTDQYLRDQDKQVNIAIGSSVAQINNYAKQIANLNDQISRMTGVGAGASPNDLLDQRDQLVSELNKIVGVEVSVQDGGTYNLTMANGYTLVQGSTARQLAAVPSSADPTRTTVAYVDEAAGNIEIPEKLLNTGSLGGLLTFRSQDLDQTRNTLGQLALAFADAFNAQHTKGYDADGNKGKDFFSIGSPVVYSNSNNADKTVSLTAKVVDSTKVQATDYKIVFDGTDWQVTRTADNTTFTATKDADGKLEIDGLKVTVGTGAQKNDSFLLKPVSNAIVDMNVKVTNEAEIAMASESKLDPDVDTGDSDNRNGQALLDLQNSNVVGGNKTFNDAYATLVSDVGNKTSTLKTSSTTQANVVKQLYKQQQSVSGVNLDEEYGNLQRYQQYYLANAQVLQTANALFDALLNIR
The experiment in a line: pull-down; GST affinity chromatography: purified His-FlhAC mixed with purified GST-FlgN/FlgK complex or GST-FliJ, dialyzed overnight against PBS pH 7.4 at 4 °C, loaded on glutathione Sepharose 4B, eluted with 10 mM reduced glutathione; SDS-PAGE with CBB staining. The following applies: both partners purified.

Series [2] concerns the molecule itself. Put plainly: high-speed atomic force microscopy; ring formation of purified FlhAC monomer (2 μM) in 50 mM Tris-HCl pH 8.0, 100 mM NaCl placed on mica, room temperature; imaged in 10 mM Tris-HCl pH 6.8.

What is called stoichiometry N is the number of molecules, sites or subunits per partner or assembly.

B1: GST-FlgN (natural protein)
chain: MTRLSEILDQMTTVLNDLKTVMDAEQQQLSVGQINGSQLQRITEEKSSLLATLDYLEQQRRLEQNAQRSANDDIAERWQAITEKTQHLRDLNQHNGWLLEGQIERNQQALEVLKPHQEPTLYGADGQTSVSHRGGKKISI
notes: FlgN, flagellar export chaperone, Salmonella enterica serovar Typhimurium (plasmid pMMGN101, pGEX-6p-1); source: Salmonella SJW1368, purified (glutathione Sepharose 4B)
Consider B1, for which the binding result in series [1] was “binds”.

B2: His-FlhAC with the Y369A/R370A/L371A/I372V (AAAV) mutation (domain or fragment)
chain: AGILIMVINVVGGLLVGVLQHGMSIGSAAESYTLLTIGDGLVAQIPALVISTAAGVIVTRVSTDQDVGEQMVGQLFSNPRVMLLAAAVLGLLGMVPGMPNLVFLLFTAALLGLAWWLRGREEKAPEEPQPVKMPENNSVVEATWNDVQLEDSLGMEVGAAAVPMVDFQQDGELLGRIRSIRKKFAQDMGFLPPVVHIRDNMDLQPARYRILMKGVEIGSGDAYPGRWLAINPGTAAGTLPGEKTVDPAFGLDAIWIESALKEQAQIQGFTVVEASTVVATHLNHLIGQFSAELFGRQEAQQLLDRVSQEMPKLTEDLVPGVVTLTTLHKVLQNLLAEKVPIRDMRTILETLAEHAPLQSDPHELTAVVRVALGRAITQQWFPGNEEVQVIGLDTALERLLLQALQGGGGLEPGLADRLLAQTQEALSRQEMLGAPPVLLVNHALRPLLSRFLRRSLPQLVVLSNLELSDNRHIRMTATIGGK
notes: Intragenic suppressor (A372V) of the AAAA mutant; also called FlhA_(C-AAAV); His-FlhA_(C-AAAV); source: E. coli BL21 Star (DE3), purified (Ni-NTA, SEC); not shown: His tag, N-terminal, kept
As for B2, the “stoichiometry N” value in series [2] was determined as 9.
